Experimental data from paper PMC12325699, “Utilizing native nanodiscs to isolate active TRPC3 channels and expand structural analysis capabilities” (Scientific Reports, 2025).

Target: the molecule itself
Test: negative-stain electron microscopy; purified TRPC3 at 0.1 mg/mL, extracted from Expi293F membranes with DDM or with DDDG, on a TEM grid, stained with 1% uranyl acetate

B1: canonical transient receptor potential channel 3 (TRPC3), TRPC3-YFP-3xFLAG construct (natural protein, human, UniProt Q13507-3 1-848, looked up)
chain: MEGSPSLRRMTVMREKGRRQAVRGPAFMFNDRGTSLTAEEERFLDAAEYGNIPVVRKMLEESKTLNVNCVDYMGQNALQLAVGNEHLEVTELLLKKENLARIGDALLLAISKGYVRIVEAILNHPGFAASKRLTLSPCEQELQDDDFYAYDEDGTRFSPDITPIILAAHCQKYEVVHMLLMKGARIERPHDYFCKCGDCMEKQRHDSFSHSRSRINAYKGLASPAYLSLSSEDPVLTALELSNELAKLANIEKEFKNDYRKLSMQCKDFVVGVLDLCRDSEEVEAILNGDLESAEPLEVHRHKASLSRVKLAIKYEVKKFVAHPNCQQQLLTIWYENLSGLREQTIAIKCLVVLVVALGLPFLAIGYWIAPCSRLGKILRSPFMKFVAHAASFIIFLGLLVFNASDRFEGITTLPNITVTDYPKQIFRVKTTQFTWTEMLIMVWVLGMMWSECKELWLEGPREYILQLWNVLDFGMLSIFIAAFTARFLAFLQATKAQQYVDSYVQESDLSEVTLPPEIQYFTYARDKWLPSDPQIISEGLYAIAVVLSFSRIAYILPANESFGPLQISLGRTVKDIFKFMVLFIMVFFAFMIGMFILYSYYLGAKVNAAFTTVEESFKTLFWSIFGLSEVTSVVLKYDHKFIENIGYVLYGIYNVTMVVVLLNMLIAMINSSYQEIEDDSDVEWKFARSKLWLSYFDDGKTLPPPFSLVPSPKSFVYFIMRIVNFPKCRRRRLQKDIEMGMGNSKSRLNLFTQSNSRVFESHSFNSILNQPTRYQQIMKRLIKRYVLKAQVDKENDEVNEGELKEIKQDISSLRYELLEDKSQATEELAILIHKLSEKLNPSMLRCE
notes: a TEV site stands between the tags and TRPC3 by the plasmid's name; The protein was purified by its FLAG tag; no TEV cleavage step is described, so the tags were probably still on the protein in the electron microscopy; also called TRPC3–3 x FLAG–YFP; 3xFLAG-YFP; source: Expi293F, transiently transfected; membranes extracted with DDM or DDDG
- stoichiometry N: 4
